Results from patent publication US20200031919A1 (SUZHOU KANOVA BIOPHARMACEUTICAL, published 2020).
Where a chain is given by its changes, count along the chain named. Like-named read-outs stand apart in the source and are kept apart here.

Assays:
human IL-17F [1] = molecular target: T1, human IL-17F (human, UniProt Q96PD4 31-163); experiment: ELISA, human IL-17F coated at 2 µg/ml
T1 construct: Commercial recombinant protein; also called hIL-17F
T1 sequence (looked up): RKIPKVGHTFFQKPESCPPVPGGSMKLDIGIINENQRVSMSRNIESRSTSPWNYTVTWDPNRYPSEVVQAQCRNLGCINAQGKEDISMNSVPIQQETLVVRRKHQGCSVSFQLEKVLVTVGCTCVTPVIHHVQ
Procedure: (§1) MaxiSorp 96-well plates (NUNC # 449824, www.thermofisher.com) were coated with 2 μg/ml human IL-17A (Cell Signaling #89285F, www.cellsignal.com), human IL-17F (Cell Signaling #8906LC, www.cellsignal.com), human IL-17B (Peprotech #200-28, www.peprotech.com), human IL-17C (R&D systems #1234-IL-025/CF, www.rndsystems.com), human IL-17D ((Peprotech #200-27, www.peprotech.com), human IL-17E (R&D systems #1258-IL-025/CF, www.rndsystems.com) in 1× PBS (50 μl/well) respectively. Plates were incubated at 4° C. overnight. Coating solution was removed and plates were washed once with 200 μl/well PBST (1× PBS with 0.05% tween-20). Then 200 μl/well blocking buffer (1× PBS with 0.05% tween-20, 3% BSA) was added and incubated at room temperature for 1 hour. Blocking buffer was removed and plates were washed three times with 200 μl/well PBST (1× PBS with 0.05% tween-20). The anti-IL17A/F antibody, hIgG VH1-1/VL5, was diluted to 10, 3.33, 1.11, 0.37, 0.123, 0.041, 0.0137, 0.0046, 0.0015, 0.00031, 0.000102, 0.000034 μg/ml by 1× PBS and added to the plates (50 μl/well). Plates were incubated at room temperature for 2 hours. Antibodies in the wells were removed and plates were washed three times with 200 μl/well PBST (1× PBS with 0.05% tween-20). […] Plates were read at 450 nm. […]

human IL-17A [2] = molecular target: T2, human IL-17A (human, UniProt Q16552 24-155); experiment: ELISA, human IL-17A coated at 2 µg/ml
T2 construct: Commercial recombinant protein; also called hIL-17A; CTLA-8
T2 sequence (looked up): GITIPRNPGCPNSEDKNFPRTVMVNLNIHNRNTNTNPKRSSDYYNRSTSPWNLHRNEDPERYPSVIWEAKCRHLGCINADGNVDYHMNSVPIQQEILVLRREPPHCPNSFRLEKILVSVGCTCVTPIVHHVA
Procedure: as §1

IL-17A/F heterodimer [3] = molecular target: T3, IL-17A/F heterodimer (UniProt Q16552 24-155; Q96PD4 31-163, limits assumed); experiment: blocking ELISA: 0.5 ug/ml hIL-17A/F heterodimer coated, antibody titrated, then 10 ug/ml hIL17RA-mIgG2aFc (blocked ligand partner); OD450 falls from about 1.9 to a lower plateau of about 0.6
T3 construct: Commercial heterodimer
T3 sequence (looked up) 1: T2 sequence (looked up)
T3 sequence (looked up) 2: T1 sequence (looked up)
Procedure: (§2) The effect of the anti-IL17A/F antibody (produced in Example 2) on the binding of IL-17A, IL-17F or IL17A/F to the IL-17 receptor was tested by ELISA. IL-17A, IL-17F or IL-17A/F was coated in 96 well plate with 50 μl/well protein solution (protein concentration was […]) at 4° C. overnight. The wells were blocked with 1% BSA in PBST (tween 0.05%) by 200 μl/well at room temperature for 1 hour. The wells were washed 3 times with PBST. The anti-IL17A/F antibody and isotype control antibody human IgG1 (Biolegend cat# 403102) were diluted by PBS from 30 μg/ml down to 0.0005 μg/ml ([…]). The antibodies were added into the corresponding wells (50 μl/well) and incubated at room temperature for 4 hours. The wells were washed 3 times with PBST. hIL17RA-mIgG2aFc (10 μg/ml, in-house production according to standard molecular biology technology, Carson S, Molecular Biology Techniques, 2012) were added into each well (50 μl/well) and incubated at room temperature for 1 hour. The wells were washed 3 times with PBST. Goat anti-human IgG-HRP (1:5000 in PBS, EASYBIO Cat# BE0102) were added into each well (50 μl/well) and incubated at room temperature for 30 min. The wells were washed 6 times with PBST. […] The plate was read at 450 nm and 570 nm.

human IL-17A [4] = molecular target: T2, human IL-17A; experiment: blocking ELISA: 0.5 ug/ml hIL-17A coated, antibody titrated, then 10 ug/ml hIL17RA-mIgG2aFc (blocked ligand partner); OD450 falls from about 1.3 to a lower plateau of about 0.67
Procedure: as §2

human IL-17A [5] = molecular target: T2, human IL-17A; experiment: ELISA, human IL-17A coated at 2 µg/ml; remark: listed apart in the source
Procedure: as §1

cynomolgus IL-17F = molecular target: T4, cynomolgus IL-17F (cynomolgus, UniProt G7P4V0 31-163); experiment: ELISA, cynomolgus IL-17F coated at 2 µg/ml
T4 construct: also called cynomolgus 17F
T4 sequence: T1 sequence (looked up) with G22E, I29T, R73K, N74H, V100L, I129V
Procedure: (§3) Human IgG1 (hIgG1) was used as a control antibody. EC50 values were calculated by GraphPad Prism.
(§4) The binding of anti-IL-17A/F antibody to cynomolgus IL-17A and IL-17F was determined by ELISA. Assay was performed in the same method of Example 7, except that cynomolgus IL-17A (Gene ID: XM 005552759.2, in-house production according to standard molecular biology method, Carson S, Molecular Biology Techniques, 2012) and IL-17F (Gene ID: XM_005552757.2, in-house production according to standard molecular biology method, Carson S, Molecular Biology Techniques, 2012) were used to replace human IL-17A and F, respectively.

cynomolgus IL-17A = molecular target: T5, cynomolgus IL-17A (cynomolgus, UniProt A0A2K5TTB0 24-155); experiment: ELISA, cynomolgus IL-17A coated at 2 µg/ml
T5 sequence: T2 sequence (looked up) with T3A, P8S, N34S, I77V, N78K, P104R
Procedure: as §3, §4

human IL-17C = molecular target: T6, human IL-17C (human, UniProt Q9P0M4 19-197); experiment: ELISA, cytokine coated at 2 µg/ml
T6 construct: Commercial recombinant protein
T6 sequence (looked up): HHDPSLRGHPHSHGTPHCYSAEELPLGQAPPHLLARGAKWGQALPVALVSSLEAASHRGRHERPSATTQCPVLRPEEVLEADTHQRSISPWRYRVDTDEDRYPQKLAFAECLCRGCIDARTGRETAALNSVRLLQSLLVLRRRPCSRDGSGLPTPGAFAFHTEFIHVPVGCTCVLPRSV
Procedure: (§5) MaxiSorp 96-well plates (NUNC # 449824, www.thermofisher.com) were coated with 2 μg/ml human IL-17A (Cell Signaling #89285F, www.cellsignal.com), human IL-17F (Cell Signaling #8906LC, www.cellsignal.com), human IL-17B (Peprotech #200-28, www.peprotech.com), human IL-17C (R&D systems #1234-IL-025/CF, www.rndsystems.com), human IL-17D ((Peprotech #200-27, www.peprotech.com), human IL-17E (R&D systems #1258-IL-025/CF, www.rndsystems.com) in 1× PBS (50 μl/well) respectively. Plates were incubated at 4° C. overnight. Coating solution was removed and plates were washed once with 200 μl/well PBST (1× PBS with 0.05% tween-20). Then 200 μl/well blocking buffer (1× PBS with 0.05% tween-20, 3% BSA) was added and incubated at room temperature for 1 hour. Blocking buffer was removed and plates were washed three times with 200 μl/well PBST (1× PBS with 0.05% tween-20). The anti-IL17A/F antibody, hIgG VH1-1/VL5, was diluted to […], 0.000102, 0.000034 μg/ml by 1× PBS and added to the plates (50 μl/well). Plates were incubated at room temperature for 2 hours. Antibodies in the wells were removed and plates were washed three times with 200 μl/well PBST (1× PBS with 0.05% tween-20). Goat anti-human IgG(H&L)—HRP secondary antibody (Jackson Immuno Research #109-035-088, www.jacksonimmuno.com) was diluted 1:5000 in 1× PBS and added to each well (50 μl/well). Plates were incubated at room temperature for 1 hour. Secondary antibody was removed and plates were washed seven times with 200 μl/well PBST (1× PBS with 0.05% tween-20). 50 μl/well TMB (eBioscience # 85-00-4201-56, www.ebioscience.com) was added and plates were incubated at room temperature for several minutes. Then 50 μl/well 2N H₂SO₄ was added to stop the reaction. Plates were read at 450 nm. […] So, the hIgG VH1-1/VL5 antibody has binding specificity to human IL-17A and 17F and has no cross-reactivity to other IL-17 family members.

human IL-17D = molecular target: T7, human IL-17D (human, UniProt Q8TAD2 18-202, limits assumed); experiment: ELISA, cytokine coated at 2 µg/ml
T7 construct: Commercial recombinant protein
T7 sequence (looked up): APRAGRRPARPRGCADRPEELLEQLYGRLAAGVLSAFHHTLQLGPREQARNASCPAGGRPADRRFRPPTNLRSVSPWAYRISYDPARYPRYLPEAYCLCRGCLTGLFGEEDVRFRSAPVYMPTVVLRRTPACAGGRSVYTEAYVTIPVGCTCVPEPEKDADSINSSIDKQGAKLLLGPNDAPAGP
Procedure: as §5

human IL-17B = molecular target: T8, human IL-17B (human, UniProt Q9UHF5 21-180); experiment: ELISA, cytokine coated at 2 µg/ml
T8 construct: Commercial recombinant protein
T8 sequence (looked up): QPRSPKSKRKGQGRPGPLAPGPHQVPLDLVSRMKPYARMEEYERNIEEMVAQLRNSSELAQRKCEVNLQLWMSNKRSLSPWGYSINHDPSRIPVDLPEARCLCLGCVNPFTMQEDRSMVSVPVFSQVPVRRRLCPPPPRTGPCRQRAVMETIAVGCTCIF
Procedure: as §5

human IL-17E = molecular target: T9, human IL-17E (human, UniProt Q9H293 33-177); experiment: ELISA, cytokine coated at 2 µg/ml
T9 construct: Commercial recombinant protein; also called IL-25
T9 sequence (looked up): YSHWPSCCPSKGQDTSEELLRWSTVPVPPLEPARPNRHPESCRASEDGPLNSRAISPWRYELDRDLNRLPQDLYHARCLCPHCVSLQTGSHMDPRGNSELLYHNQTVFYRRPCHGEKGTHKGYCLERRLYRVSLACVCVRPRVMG
Procedure: as §5

human IL-17A [6] = molecular target: T2, human IL-17A; experiment: SPR (Biacore T200), antibody captured by anti-human Fc, IL-17 as analyte
Procedure: Anti-human Fc gamma specific antibody (Jackson Immuno Research, Lot no. 124448, Code. 109-008-098) was immobilized onto the sensor chip using amine coupling method. Four antibodies secreted to the culture medium plus the parental antibody were injected and captured by anti-human Fc antibody via Fc (capture phase) individually. After equilibration, IL-17 was injected for 300 seconds (association phase) followed by the injection of running buffer for 1200s (dissociation phase). Responses of reference flow cell (flow cell 1) were subtracted from those of humanized antibodies flow cells during each cycle. The surface was regenerated before the injection of another humanized antibody. The process was repeated until all antibodies are analyzed. The off-rates of humanized antibodies were obtained from fitting the experimental data locally to 1:1 interaction model using the Biacore T200 evaluation software. The antibodies were ranked by their dissociation rate constants (off-rates, Kd). The binders that interact with IL-17 with similar affinity to parental antibody were selected.

human IL-17F [7] = molecular target: T1, human IL-17F; experiment: blocking ELISA: 0.5 ug/ml hIL-17F coated, antibody titrated, then 10 ug/ml hIL17RA-mIgG2aFc (blocked ligand partner); OD450 falls from about 1.35 to a lower plateau of about 0.87
Procedure: as §2

human IL-17F [8] = molecular target: T1, human IL-17F; experiment: ELISA, human IL-17F coated at 2 µg/ml; remark: listed apart in the source
Procedure: as §1

IL-17A/F heterodimer [9] = molecular target: T3, IL-17A/F heterodimer; experiment: cell-based or functional assay
human IL-17F [10] = molecular target: T1, human IL-17F; experiment: cell-based or functional assay
human IL-17A [11] = molecular target: T2, human IL-17A; experiment: cell-based or functional assay

B1: anti-IL17A/F antibody hIgG VH1-1/VL5 (antibody, V domains shown)
VH: QFQLVQSGAEVKKPGASVKVSCKASGYTFTDYNLNWVRQAPGKGLEWMGVIHPDYGTTSYNQKFKDRVTMTVDTSTSTVYMELSSLRSEDTAVYYCVRYDYGDAMDYWGQGTLVTVSS
VL: DIVMTQSPLSLSVTPGQPASISCRSSQSLVHSNGNTYLHWYLQKPGQPPQLLIYKVSNRFSGVPDRFSGSGSGTDFTLKISRVEAEDVGVYYCSQSTHVPLTFGQGTKLEIKR
notes: also called VH1-1/VL5 mAb; hIgGc VH1-1/VL5
EC50 (human IL-17F [1]): 0.047 nM
EC50 (human IL-17A [2]): 0.046 nM
IC50 (IL-17A/F heterodimer [3]): 0.45 nM
IC50 (human IL-17A [4]): 0.72 nM
EC50 (human IL-17A [5]): 0.039 nM
EC50 (cynomolgus IL-17F): 0.18 nM
EC50 (cynomolgus IL-17A): 0.06 nM
binding result (human IL-17C): no binding
binding result (human IL-17D): no binding
binding result (human IL-17B): no binding
binding result (human IL-17E): no binding
Kd (human IL-17A [6]): 0.29 nM
koff (human IL-17A [6]): 0.00059 s⁻¹
kon (human IL-17A [6]): 2e+06 M⁻¹ s⁻¹
IC50 (human IL-17F [7]): 0.67 nM
EC50 (human IL-17F [8]): 0.042 nM
IC50 of inhibition of IL-17A/F heterodimer-induced IL-6 production in HFF-1 cells (IL-17A/F heterodimer [9]): 0.99 nM
IC50 of inhibition of IL-17F-induced IL-6 production in HFF-1 cells (human IL-17F [10]): 1.77 nM
IC50 of inhibition of IL-17A-induced IL-6 production in HFF-1 cells (human IL-17A [11]): 1.73 nM
